The values that follow come from US20200114017A1 (BIONOMICS, published 2020).

Substitutions are numbered along the chain they refer to.

The target in experiment [1] is T1, human LGR5 (leucine-rich repeat containing G-protein-coupled receptor 5) (human, UniProt O75473 22-561).
T1 sequence: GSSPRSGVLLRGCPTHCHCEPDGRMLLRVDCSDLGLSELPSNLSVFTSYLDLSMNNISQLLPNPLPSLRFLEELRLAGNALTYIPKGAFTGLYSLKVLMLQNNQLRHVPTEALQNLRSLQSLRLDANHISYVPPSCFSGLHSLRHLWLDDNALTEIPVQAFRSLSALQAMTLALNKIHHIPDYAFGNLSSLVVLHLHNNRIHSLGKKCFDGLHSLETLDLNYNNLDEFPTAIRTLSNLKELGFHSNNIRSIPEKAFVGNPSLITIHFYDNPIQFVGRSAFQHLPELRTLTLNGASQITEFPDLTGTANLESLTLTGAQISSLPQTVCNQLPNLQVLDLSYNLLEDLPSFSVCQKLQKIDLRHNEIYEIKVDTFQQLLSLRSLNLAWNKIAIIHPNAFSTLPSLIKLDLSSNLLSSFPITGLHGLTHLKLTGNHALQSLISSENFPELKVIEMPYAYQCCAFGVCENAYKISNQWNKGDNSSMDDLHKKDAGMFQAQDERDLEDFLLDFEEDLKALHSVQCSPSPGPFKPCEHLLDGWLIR
As to the kind of experiment: cell-based or functional assay.

For experiment [2], the target named is T1, human LGR5 (leucine-rich repeat …). As to the kind of experiment: FACS on CHO cells expressing recombinant LGR5.

B1: 18G7Ch (antibody, human IgG1, kappa, V domains shown)
VH: QVQLQQSGAELVKPGASVKISCKATGYTFSGYWIEWVKQRPGHGLEWIGEILPGSDSTNYNEKFKGKATFTADTSSNTVYMQFSSLTSEDSAVYYCARSGYYGSSQYWGQGTTLTVSS
VL: NIVLTQSPASLAVSLGQRATISCRASESVDSYGNSFMHWYQQKPGQPPKLLIYLTSNLESGVPARFSGSGSRTDFTLTIDPVEADDAATYYCQQNNEDPRTFGGGTKLEIKR
Take B1: the “IC50 (nM) of cell viability, MTS assay, primary antibody + secondary ADC (NL-MMAF)” value in experiment [1] is 0.115 nM.

B2: 18G7H6A1 (antibody, human IgG1, kappa, V domains shown)
VH: EVQLVQSGAEVKKPGESLRISCKGSGYSFTAYWIEWVRQAPGKGLEWIGEILPGSDSTNYNEKFKGHVTISADKSISTAYLQWSSLKASDTAVYYCARSGYYGSSQYWGQGTLVTVSS
VL: B1 VL with N1D, L15P, S22T, A64D, R72G, D80N, D85N, N96A
Usually EC50 stands for the concentration at which the effect is half-maximal. As to B2, the EC50 in experiment [2] was less than 10000 pM.
